Assay results published in the nanobody polyreactivity screen of Harvey et al. (2022).

Assay: yeast display, Sf9 membrane polyspecificity reagent, FACS + sequencing; frameworks hold sequencing errors
How it was run: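 Synthetic nanobody libraries on Saccharomyces cerevisiae BJ5465 were galactose-induced for 36–48 hours, stained 1 hour at 4 °C with 10% biotinylated, detergent-solubilized Sf9 membrane reagent and enriched on streptavidin microbeads. FACS then separated cells into low and high (top ~1%) gates by anti-HA (expression) and streptavidin (reagent binding) fluorescence. Genes were colony-PCR amplified, MiSeq 2 × 250 sequenced and CDR-length filtered. A clone's polyreactivity label is that of its gate of origin.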

Sequence: QVQLVESGGGLVQAGGSLRLSCAASGRIFQSNAMGWYRQAPGKEREFVARISKRGGSTYYADSVKGRFTISRDNAKNTVYLQMNSLKPEDTAVYYCAVRRHDRGTMGYWGQGTQVTVSS
- polyreactivity (PSR sort gate): low polyreactivity

Sequence: QVQLVESGGGLVQAGGSLRLSCAASGRIFQSNAMGWYRQAPGKERELVAAISYSGGSTYYADSVKGRFTISRDNAKNTVYLQMNSLKPEDTAVYYCAADIFSPAFDYWGQGTQVTVSS
- polyreactivity (PSR sort gate): low polyreactivity

Sequence: QVQLVESGGGLVQAGGSLRLSCAASGRIFQSYAMGWYRQAPGKERELVAGINSDTSTNYADSVKGRFTISRDNAKNTVYLQMNSLKPEDTAVYYCNAGWDTYYWQSTEFDYWGQGSQVTVSS
- polyreactivity (PSR sort gate): low polyreactivity

Sequence: QVQLVESGGGLVQAGGSLRLSCAASGRIFQTYAMGWYRQAPGKERELVAAISSRGRTYYADSVKGRFTISRDNAKNTVYLQMNSLKPEDTAVYYCAARDWSHRPRGYDYWGQGTQVTVSS
- polyreactivity (PSR sort gate): high polyreactivity

Sequence: QVQLVESGGGLVQAGGSLRLSCAASGRIFQTYTMGWYRQAPGKERELVARITGGDSTYYADSVKGRFTISRDNAKITVYLQMNSLKPEDTAVYYCAAEVWSYWGTFNYWGQGTQVTVSS
- polyreactivity (PSR sort gate): low polyreactivity

Sequence: QVQLVESGGGLVQAGGSLRLSCAASGRIFQVNAMGWYRQAPGKERELVAAITYSGGTTYYADSVKGRFTISRDNAKNNVYLQMNRLKPEYTAVYYCAAEGYGAQGDPWQYGYEYWGQGTKVTVSS
- polyreactivity (PSR sort gate): low polyreactivity

Sequence: QVQLVESGGGLVQAGGSLRLSCAASGRIFQWNAMGWYRQAPGKERELVAAITYSGSSTNYADSVKGRFTISRDNAKNTVYLQMNSLKPEDTAVFYCNRDFYQYLSYFWHYGYWGQGTQVTVSS
- polyreactivity (PSR sort gate): low polyreactivity

Sequence: QVQLVESGGGLVQAGGSLRLSCAASGRIFQYNAMGWYRQAPGKDRELVAAIRRGGGSTYYADSVKGRFTISRDNAKNTVYLQMNSLKPEDTAVYYCAARRKRVSFYPEYDYWGQGTQVTVSS
- polyreactivity (PSR sort gate): low polyreactivity

Sequence: QVQLVESGGGLVQAGGSLRLSCAASGRIFQYNAMGWYRQAPGKERALVAAIRRGGGSTYYADSVKGRFTISRDNAKNTVYLQMNSLKPEDTAVYYCAARRKRVSFYPEYDYWGQGTQVTVSS
- polyreactivity (PSR sort gate): low polyreactivity

Sequence: QVQLVESGGGLVQAGGSLRLSCAASGRIFQYNTMGWYRQAPGKERELVARISWSGGSTRYADSVKGRFTISRDNAKNTVDLQMNSLKPEETEVYYCAVQEAYRYAHAYYYWGQGTQVTVSS
- polyreactivity (PSR sort gate): high polyreactivity

Sequence: QVQLVESGGGLVQAGGSLRLSCAASGRIFQYYAMGWYRQAPGKERELVASISGRGGRTYYADSVKGRLTISRDNAKNTVYLQMNSLKPEDTAVYYCNAVFSTIRYIRSYNYWGQGTQVTVSS
- polyreactivity (PSR sort gate): high polyreactivity

Sequence: QVQLVESGGGLVQAGGSLRLSCAASGRIFQYYAMGWYRQAPGKERELVATITSTGSTYYADSVKGRFTISRDNAKNTVYLQMNSLKPEDTAVYYCNADPWGIYETFGDHDYWGQGTQVTVSS
- polyreactivity (PSR sort gate): low polyreactivity

Sequence: QVQLVESGGGLVQAGGSLRLSCAASGRIFQYYTIGWYRQATGKERELVAAIRSSGGITYYADSVKGRFTISRDNAKYTVYLQMNSLKPEDTAVYYCAARWYRSKYDYWGQGTQVTVSS
- polyreactivity (PSR sort gate): high polyreactivity

Sequence: QVQLVESGGGLVQAGGSLRLSCAASGRIFQYYTMGWNRQAPGKERELVAAITYSGGDTRYADSVKGRFTISRDTAKNTVYLQMNSLKPEDTAVYYCAADYFDQYQYGVWTYGYWGQGTQVTVSS
- polyreactivity (PSR sort gate): low polyreactivity

Sequence: QVQLVESGGGLVQAGGSLRLSCAASGRIFQYYTMGWSRQAPGKERELVAAITRSGGSTYYADSVKGRFTISRDNAKNTVYLQMNSLKPEDTAVYYFNADTRVKLPWYYTFDYLGQGTQVTVSS
- polyreactivity (PSR sort gate): low polyreactivity

Sequence: QVQLVESGGGLVQAGGSLRLSCAASGRIFQYYVMGRYRQAPGKEREWVAAMTSGGGTKYADSVKGRFTISRDNEKNTVYLQMNSLKPEDTAVYYCAAAWFDQYSRYDYWGQGSQVTVSS
- polyreactivity (PSR sort gate): low polyreactivity

Sequence: QVQLVESGGGLVQAGGSLRLSCAASGRIFRANTMGWYRQAPGKERELVAVITASGGSTYYADSVKGRFTISRDNAKNTVYLQMNSLKPEDTAVYYCNVRWSPAGTGLLDYWGQGTQVTVSS
- polyreactivity (PSR sort gate): high polyreactivity

Sequence: QVQLVESGGGLVQAGGSLRLSCAASGRIFRAYAMGWYRQAPGKERELVAAISSRGGSTYYADSVKGRFTISRDNAKNTVYLQMNSLKPEDTAVYYCNVDTPFREGSYDYWGQGTQVSVSS
- polyreactivity (PSR sort gate): high polyreactivity

Sequence: QVQLVESGGGLVQAGGSLRLSCAASGRIFRAYAMGWYRQAPGKERELVAAISYRGGSTYYADSVKGRFTISRDNAKNTVYLQMNSLKPEDTAVYYCAADSDRSVWIYGYSGQGTQVTVSS
- polyreactivity (PSR sort gate): low polyreactivity

Sequence: QVQLVESGGGLVQAGGSLRLSCAASGRIFRAYAMGWYRQAPGKERELVAAITSGVSTNYADSVKGRFTISRDNAKNTVYLQMNSLKPEDTAVYYCAADIYVIYEYWGQGTQVTVSS
- polyreactivity (PSR sort gate): low polyreactivity

Sequence: QVQLVESGGGLVQAGGSLRLSCAASGRIFRDYDMGWYRKAPGKEWELVAAITYRGGSTYYADSVKGRFTISRDNAKNTVYLQINSLKPEDTAVYYCAAGSRSPHWYTRELDYWVQGTQVTVSS
- polyreactivity (PSR sort gate): low polyreactivity

Sequence: QVQLVESGGGLVQAGGSLRLSCAASGRIFRFNAMGWYRQAPGKERELVAAITGSGGTTFYADSVKGRFTLSRDNAKNTVYLQMNSLKPEDTAVYYCNTLGNWRPVYNQPRYEYWGQGTQVTVSS
- polyreactivity (PSR sort gate): high polyreactivity

Sequence: QVQLVESGGGLVQAGGSLRLSCAASGRIFRFNAMGWYRQAPGKERELVAAITSGVRTNYADSVKGRFTISRDNAKNTVYLQMNSLKPEDTAVYYCAASRHYPGYRRYDYWGQGTQVTVSS
- polyreactivity (PSR sort gate): high polyreactivity

Sequence: QVQLVESGGGLVQAGGSLRLSCAASGRIFRFYAMGWYRKAPGKERELVAAITRNVGSTFYADSVKGRFTISRDNAKKTVYLQMNSLKPADTAVYYCAAESDYYYRYTFDYWGQGTQVTVSS
- polyreactivity (PSR sort gate): low polyreactivity

Sequence: QVQLVESGGGLVQAGGSLRLSCAASGRIFRFYAMGWYRQAPGKERELVADISRRGGSTYYADSVKGRFTISRDNAKNTVYLQMNSLKPEDTAVYYCNARWYRTGSTYHEDYWGQGTQVTVSS
- polyreactivity (PSR sort gate): high polyreactivity

Sequence: QVQLVESGGGLVQAGGSLRLSCAASGRIFRFYAMGWYRQAPGKERELVASISSTGGSTYYADSVKGRFTISRDNAKNTVYLQMNSLKPEDTAVYYCNTVYGYVTTYGYWGQGTQVTVSS
- polyreactivity (PSR sort gate): high polyreactivity

Sequence: QVQLVESGGGLVQAGGSLRLSCAASGRIFRFYVMGWYRQAPGKERELVAAISDSSPSTYYADSVKGRFTISRDNAKKTVYLQMNSLKPEDTAVYYCAARYPPYWSYDYDYWGQGTQVTVSS
- polyreactivity (PSR sort gate): low polyreactivity

Sequence: QVQLVESGGGLVQAGGSLRLSCAASGRIFRGNAMGWYRQAPGKERQLVADINRSGGSTYYADSVKGRFTISRDNAKNTVYLQMNSLKPEDTAVYYCNAKYRVPYAVGGDYGYWGQGTQVTVSS
- polyreactivity (PSR sort gate): high polyreactivity

Sequence: QVQLVESGGGLVQAGGSLRLSCAASGRIFRGNTMGWYRQAPGKERELVAAITRGGSTSYADSVKGRFTISRDNAKNTVNLQMNSLKPEDTAVYYCATRTHGEGTRRDSWGQGTQVTVSS
- polyreactivity (PSR sort gate): low polyreactivity

Sequence: QVQLVESGGGLVQAGGSLRLSCAASGRIFRGNTMGWYRQAPGKERELVATINGRGGSTYYADSVKGRFTISRDNAKNTVYLQMNSLKPVDTAVYYCAARRGYPRFEYWGQGTQVTVSS
- polyreactivity (PSR sort gate): high polyreactivity

Sequence: QVQLVESGGGLVQAGGSLRLSCAASGRIFRGYAMGWSRQAPGKERELVAAITSRGGSTYADSVKGRFTISRDNAKNTVYLQMNSLKPEDTAVYYCNAGYRADSSKLVFRGYPRYDYWGQGTQVTVSS
- polyreactivity (PSR sort gate): low polyreactivity

Sequence: QVQLVESGGGLVQAGGSLRLSCAASGRIFRGYAMGWYRQAPGKEREFVAAITKNGGSTYYADSVKGRFTISRDNAKNTVYLQMNSLKPEDTAVYYCAAGGPSTLDDYWGQGTQVTVSS
- polyreactivity (PSR sort gate): low polyreactivity

Sequence: QVQLVESGGGLVQAGGSLRLSCAASGRIFRGYAMGWYRQAPGKEREFVADITRSGGSTYYADSVKGRFTISRDNAKNTVYLQMNSLKPEDTAVYYCAREWYQYSPYHRFDYWGQGTQVTVSS
- polyreactivity (PSR sort gate): high polyreactivity

Sequence: QVQLVESGGGLVQAGGSLRLSCAASGRIFRGYAMGWYRQAPGKERELVAAISYSGGTTYYADSVKGRFTISRDNAKNTVYLQMNSLKPEDTAVYYCNVDADYESQWLSVGYDYWGQGTQVTVSS
- polyreactivity (PSR sort gate): low polyreactivity

Sequence: QVQLVESGGGLVQAGGSLRLSCAASGRIFRGYAMGWYRQAPGKERELVAAITKRGGSTYYADSVKGRFTISRDNAKNTVYFQMNSLKPEDTAVYYCAAYLPGWELREYGYWGQGTQVTVSS
- polyreactivity (PSR sort gate): high polyreactivity

Sequence: QVQLVESGGGLVQAGGSLRLSCAASGRIFRGYAMGWYRQAPGKERELVAGISSGDNTYYADSVKGRFTISRDNAKNTVYLQMNSLKPEDTAVYYCNADHVYAVDYDYWGQGTQVTVSS
- polyreactivity (PSR sort gate): low polyreactivity

Sequence: QVQLVESGGGLVQAGGSLRLSCAASGRIFRGYGMGWYRQAPGKERELVAAITSRGGSTYYADSVKGRFTISRDNAKYTVYLQMNSLKPEDTAVYYCNRDFNHRPLQSPKRPPKLGYWGQGTQVTVSS
- polyreactivity (PSR sort gate): high polyreactivity

Sequence: QVQLVESGGGLVQAGGSLRLSCAASGRIFRGYTMGWYRQAPGKEREFVAAITANGGRTYYADSVKGRFTISRDNAKNTVYLKMNSLKPEDTAVYYCNARTYTYRGSFDYWVQGTQVTVSS
- polyreactivity (PSR sort gate): high polyreactivity

Sequence: QVQLVESGGGLVQAGGSLRLSCAASGRIFRHKTLGWYRQAPGKEREMVAGITASGGDTYYADSVKGRFTISRDNAKNTVYLQMNSLKPEDTAVYYCATSQYGYRSWPGLYYWGQGTQVTVSS
- polyreactivity (PSR sort gate): low polyreactivity

Sequence: QVQLVESGGGLVQAGGSLRLSCAASGRIFRINAMGWYRPAPGKERELVAAITRGGSTNYADSVKGRFTISRDNAKNTVYLQMNSLKPEDTAVYYCAADVSTYYYPGWFKLYLFDYWGQGTQVTVSS
- polyreactivity (PSR sort gate): high polyreactivity

Sequence: QVQLVESGGGLVQAGGSLRLSCAASGRIFRKNVMGWYRQAPGKERELVATIRTGGTTNYADSVKGRFTISRDNAKNTVYLQMNSLKPEDTAVYYCAADRGGRAGFDYWGQGTQVTVSS
- polyreactivity (PSR sort gate): high polyreactivity

Sequence: QVQLVESGGGLVQAGGSLRLSCAASGRIFRLNAMGWYRQAPGKERELVAAITVSDSSTYADSVKGRFTISRDNAKNTVYLQMNSLKPEDTAVYYCNRDTYTEYAHSWRGWSVIFDYWGQGTQVTVSS
- polyreactivity (PSR sort gate): high polyreactivity

Sequence: QVQLVESGGGLVQAGGSLRLSCAASGRIFRLYAMGWYRQAPGKERELVAAISFSGSRTYYADSVKGRFTISRDNAKNNVYLQMNSLQPEDTAVYYCNKDHYVRYGLDYWGQGTQVTVSS
- polyreactivity (PSR sort gate): high polyreactivity
